We go through one substance from paper PMC6546705.

The assay concerns the target recombinant MnSOD-WT (manganese superoxide dismutase, wild type) (UniProt P04179). In words: SEC; Superdex 200 Increase 10/300 GL, 50 mM potassium phosphate pH 7.8; size from a calibration curve of gel filtration standards. (SEC sorts molecules by how far they enter the pores of the column.)

Consider “recombinant MnSOD-WT (manganese superoxide dismutase, wild type) (from UniProt P04179 25-222) (enzyme)”, for which the stoichiometry N came out at 4.

In general, stoichiometry N refers to the number of molecules, sites or subunits per partner or assembly.
